Assays:
[1] = molecular target: Abz-Bip-Ala-hLeu-Lys-Tyr(NO2)-Asp-NH2
[2] = molecular target: Ac-Val-Ala-Nie-Ser-Tyr(NO2)-Asp-NH2
[3] = molecular target: Abz-Val-Ala-Nle-Ser-eAHA-Asp-NH2
[4] = molecular target: Abz-Val-2Nal-hLeu-Ser-Tyr(NO2)-Asp-NH2
[5] = molecular target: Abz-3pyr-Ala-hLeu-Ser-Tyr(NO2)-Asp-NH2
[6] = molecular target: Abz-Bip-Ala-hLeu-Cha-Tyr(NO2)-Asp-NH2
[7] = molecular target: Abz-Deg-Ala-Nle-Ser-Tyr(NO2)-Asp-NH2
[8] = molecular target: Abz-Val-Ala-His-Ser-Tyr(NO2)-Aso-NH2
[9] = molecular target: Abz-2.Naph-Val-Ala-Nle-Ser-Tyr(NO2)-Asp-NH2
[10] = molecular target: Abz-Val-Ala-Hyp-Ser-Tyr(NO2)-Asp-NH2
[11] = molecular target: n-Bu-Val-Ala-Nle-Ser-Tyr(NO2)-NH2
[12] = molecular target: Abz-Val-Ala-(NMe)Nle-Ser-Tyr(NO2)-Asp-NH2
[13] = molecular target: Abz-Val-Ala-Cha-Ser-Tyr(NO2)-Asp-NH2
[14] = molecular target: Abz-Val-Ala-Gln-Ser-Tyr(NO2)-Asp-NH2
[15] = molecular target: Abz-Nle-Ser-Tyr(NO2)-Asp-NH2
[16] = molecular target: Abz-Bip-Ala-hLeu-Abu-Tyr(NO2)-Asp-NH2
[17] = molecular target: H-Ala-Nle-Ser-Tyr(NO2)-ASP-NH2
[18] = molecular target: Abz-Val-DLys-hLeu-Ser-Tyr(NO2)-Asp-NH2
[19] = molecular target: Abz-Phe-Val-Ala-Nle-Ser-Tyr(NO2)-Asp-NH2
[20] = molecular target: Abz-Val-Ala-Lys-Ser-Tyr(NO2)-Asp-NH2
[21] = molecular target: Abz-Hyp-Val-Ala-Nle-Ser-Tyr(NO2)-Asp-NH2
[22] = molecular target: Abz-Gln-Ala-hLeu-Ser-Tyr(NO2)-Asp-NH2
[23] = molecular target: Abz-3.Pyr-Val-Ala-Nle-Ser-Tyr(NO2)-Asp-NH2
[24] = molecular target: nBu-D.Ser-D.Nle-D.Ala-D.Val-p.Aba-NH2
[25] = molecular target: Abz-Val-Ala-ACH-Ser-Tyr(NO2)-Asp-NH2
[26] = molecular target: Abz-Bip-Ala-hLeu-Bu^tGly-Tyr(NO2)-Asp-NH2
[27] = molecular target: Bz-Val-Ala-Nle-Ser-Tyr(NO2)-NH2 (second printing, row r51)
[28] = molecular target: Abz-Cha-Ala-hLeu-Ser-Tyr(NO2)-Asp-NH2
[29] = molecular target: Abz-Met(O)-Ala-hLeu-Ser-Tyr(NO2)-Asp-NH2
[30] = molecular target: Abz-Val-Aib-Nle-Ser-Tyr(NO2)-Asp-NH2
[31] = molecular target: Abz-Val-Ala-Nle-Ser-Tyr(NO2)-Asp-NH2
[32] = molecular target: H-Ala-Nle-Ser-Tyr(NO2)-Asp-NR2
[33] = molecular target: Abz-Val-Ala-Nle-Ser-Ala-Asp-NH2
[34] = molecular target: Abz-Bip-Ala-hLeu-Ser-Tyr(NO2)-Asp-NH2
[35] = molecular target: Abz-Bip-Ala-hLeu-3pyr-Tyr(NO2)-Asp-NH2
[36] = molecular target: Abz-Lys-Val-Ala-Nle-Ser-Tyr(NO2)-Asp-NH2
[37] = molecular target: Abz-Val-Ala-ACP-Ser-Tyr(NO2)-Asp-NH2
[38] = molecular target: Abz-1.Naph-Val-Ala-Nle-Ser-Tyr(NO2)-Asp-NH2
[39] = molecular target: Abz-Val-Cha-hLeu-Ser-Tyr(NO2)-Asp-NH2
[40] = molecular target: Abz-Val-Ala-Aib-Ser-Tyr(NO2)-Asp-NH2
[41] = molecular target: Abz-Bip-Ala-hLeu-Leu-Tyr(NO2)-Asp-NH2
[42] = molecular target: Abz-Val-DGln-hLeu-Ser-Tyr(NO2)-Asp-NH2
[43] = molecular target: Ac-Val-Ala-Nle-Ser-Tyr(NO2)-NH2
[44] = molecular target: Abz-Val-Ala-Nle-Ser-Phe-Asp-NH2
[45] = molecular target: Abz-Val-ACH-hLeu-Ser-Tyr(NO2)-Asp-NH2

B1: Der pI (protein)
chain: TNACSINGNAPAEIDLRQMRTVTPIRMQGGCGSCWAFSGVAATESAYLAYRNQSLDLAEQELVDCASQHGCHGDTIPRGIEYIQHNGVVQESYYRYVAREQSCRRPNAQRFGISNYCQIYPPNVNKIREALAQTHSAIAVIIGIKDLDAFRHYDGRTIIQRDNGYQPNYHAVNIVGYSNAQGVDYWIVRNSWDTNWGDNGYGYFAANIDLMMIEEYPYVVIL
Measured Km [1]: 2 µM
Measured Km (µM) [2]: NS
Measured Km (µM) [3]: NM
Measured Km (µM) [4]: NS
Measured Km [5]: > 10 µM
Measured Km [6]: 2.5 µM
Measured Km (µM) [7]: NS
Measured Km [8]: > 20 µM
Measured Km (µM) [9]: NM
Measured Km (µM) [10]: NS
Measured Km (µM) [11]: NM^a
cleavage rate (rank order) [11]: Bz>n-But>Piv>Bz(2-carboxy)>Abz
Measured Km (µM) [12]: NS
Measured Km [13]: 5 µM
Measured Km [14]: 6 µM
Measured Km (µM) [15]: NS
Measured Km [16]: 1.7 µM
Measured Km (µM) [17]: NS
Measured Km (µM) [18]: NS
Measured Km (µM) [19]: NM
Measured Km [20]: 14 µM
Measured Km (µM) [21]: NS
Measured Km [22]: 12 µM
Measured Km (µM) [23]: NM
Measured Km (µM) [24]: NS
Measured Km (µM) (Abz-Val-Ala-Nle-Ser-NH2): NM
Measured Km (µM) [25]: NS
Measured Km [26]: 4 µM
Measured Km (µM) [27]: NM^a
Measured Km [28]: 9 µM
Measured Km [29]: 20 µM
Measured Km (µM) [30]: NS
Measured Km [31]: 12 µM
kcat/Km [31]: 35000 M⁻¹ s⁻¹
Measured Km (µM) [32]: NS
Measured Km (µM) [33]: NM
Measured Km [34]: 2.5 µM
Measured Km [35]: 4 µM
Measured Km [36]: 15 µM
Measured Km (µM) [37]: NS
Measured Km [38]: 17 µM
Measured Km (µM) [39]: NS
Measured Km (µM) [40]: NS
Measured Km [41]: 3.7 µM
Measured Km (µM) [42]: NS
Measured Km (µM) [43]: NS
Measured Km (µM) [44]: NM
Measured Km (µM) [45]: NS

From US20030092067A1
